Assay results reported in US20170355757A1 (Regeneron, published 2017).

T1: monkey C5-mmh (monkey, UniProt P01031 19-1676 (human entry), limits assumed)
T1 construct: recombinant, with C-terminal myc-myc-hexahistidine tag
T1 chain: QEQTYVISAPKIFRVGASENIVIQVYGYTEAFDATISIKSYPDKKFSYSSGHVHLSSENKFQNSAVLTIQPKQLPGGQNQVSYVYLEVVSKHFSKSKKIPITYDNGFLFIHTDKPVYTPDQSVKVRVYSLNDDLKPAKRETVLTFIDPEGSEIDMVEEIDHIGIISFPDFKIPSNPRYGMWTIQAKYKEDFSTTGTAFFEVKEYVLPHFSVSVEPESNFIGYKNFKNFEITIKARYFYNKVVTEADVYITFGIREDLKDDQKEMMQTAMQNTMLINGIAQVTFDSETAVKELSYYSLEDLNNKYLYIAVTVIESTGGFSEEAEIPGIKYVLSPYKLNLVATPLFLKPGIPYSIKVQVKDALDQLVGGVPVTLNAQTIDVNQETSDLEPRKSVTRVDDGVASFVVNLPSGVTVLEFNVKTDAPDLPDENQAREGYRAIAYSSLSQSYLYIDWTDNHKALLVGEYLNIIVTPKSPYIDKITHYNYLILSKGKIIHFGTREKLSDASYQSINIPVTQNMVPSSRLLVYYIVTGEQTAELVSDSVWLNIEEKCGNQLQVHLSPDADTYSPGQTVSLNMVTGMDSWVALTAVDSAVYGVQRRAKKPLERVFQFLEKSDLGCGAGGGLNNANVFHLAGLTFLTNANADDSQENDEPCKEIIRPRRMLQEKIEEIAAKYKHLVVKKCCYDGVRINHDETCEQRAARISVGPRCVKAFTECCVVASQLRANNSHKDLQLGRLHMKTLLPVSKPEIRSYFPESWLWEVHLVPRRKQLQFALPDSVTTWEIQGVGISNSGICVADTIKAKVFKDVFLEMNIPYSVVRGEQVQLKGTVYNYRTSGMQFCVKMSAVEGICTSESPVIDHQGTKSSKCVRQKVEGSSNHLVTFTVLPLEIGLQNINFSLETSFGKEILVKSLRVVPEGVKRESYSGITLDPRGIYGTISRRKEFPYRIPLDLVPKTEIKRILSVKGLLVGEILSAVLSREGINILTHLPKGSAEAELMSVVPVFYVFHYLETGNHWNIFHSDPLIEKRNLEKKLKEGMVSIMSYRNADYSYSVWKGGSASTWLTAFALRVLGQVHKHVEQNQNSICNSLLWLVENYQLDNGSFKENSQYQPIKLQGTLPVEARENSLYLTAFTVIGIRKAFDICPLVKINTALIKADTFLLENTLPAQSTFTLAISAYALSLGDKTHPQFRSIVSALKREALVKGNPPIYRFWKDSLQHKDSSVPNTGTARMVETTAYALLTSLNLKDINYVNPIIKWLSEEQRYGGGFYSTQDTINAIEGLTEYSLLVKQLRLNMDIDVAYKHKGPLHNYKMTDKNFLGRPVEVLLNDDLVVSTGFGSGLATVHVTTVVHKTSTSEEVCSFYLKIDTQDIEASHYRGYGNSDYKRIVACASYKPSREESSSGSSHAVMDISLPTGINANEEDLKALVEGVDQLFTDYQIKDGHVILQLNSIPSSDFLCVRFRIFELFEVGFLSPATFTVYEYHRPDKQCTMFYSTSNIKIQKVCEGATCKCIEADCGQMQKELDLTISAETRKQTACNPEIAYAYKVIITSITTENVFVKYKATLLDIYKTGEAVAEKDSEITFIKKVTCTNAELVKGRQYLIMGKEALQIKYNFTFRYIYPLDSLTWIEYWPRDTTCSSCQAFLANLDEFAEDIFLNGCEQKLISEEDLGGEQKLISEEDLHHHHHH

B1: H4H12170P (antibody, human IgG4, V domains shown)
VH: QVQLVESGGGVVQPGRSLRLSCAASGFTFSGYGMHWVRQAPGKGLEWVALIWLDGSNDYYADSVKGRFTISRDNSKNTLYLQMNRLRAEDTAVYYCARDGPVAAIPDYWGQGTLVTVSS
VL: DIQMTQSPSTLSASVGDRVTITCRASQSISRWLAWYQLKPGKAPKLLIYKASSLESGVPSRFSGSGSGTDFTLTISSLQPDDFATYYCQQYNTYSYTFGQGTKLEIK
notes: H4H: human IgG4 Fc with S108P hinge mutation
B2: H4H12175P (antibody, human IgG4, V domains shown)
VH: EVQLVESGGGVVQPGGSLRLSCAASGFTFNDYAMHWVRQAPGKGLEWVSLISGDGGNTYYADSVKGRLTISRDNSKNSLYLQMNSLRTEDTALYYCAKDKGWNFGYFDLWGRGTLVTVSS
VL: DIQMTQSPSSLSTSVGDRVTITCRASQNIDTYLNWYQQKPGKAPKLLIYDASSLQSGVPSRFSGSGSGTDFTLTITSLQPEDFATYYCQQNDNILHPLTFGGGTKVEIK
notes: as for B1
B3: H4H12171P (antibody, human IgG4, V domains shown)
VH: EVQLVESGGGVVRPGGSLRLSCAASGFTFDEYGMTWVRQVPGKGLEWVSGITWNGGFTDYTDSVKGRFTSSRDNAKNSLYLQMNSLRAEDTALYYCARDGYSSSWGAYDIWGQGTMVTVSS
VL: DIQMTQSPSSLSASVGDRVTITCRASQSISTYLNWYQQKPGKAPKLLIYAASSLQSGVPLRFSGSGSGTDFTLTISSLQPEDFASYFCQQSYSTPYTFGQGTKLEIK
notes: as for B1
B4: H4H12164P (antibody, human IgG4, V domains shown)
VH: EVQLVESGGGLVRSGGSLRLSCAASGFTFNRYAMTWVRQAPGKGLEWVSAISGSGSSTYYTDSVKGRFTISRDNSKNSVDLQMHSLRVEDTAIYYCARGTTVTTGYGMDVWGQGTTVTVSS
VL: DIQMTQSPSSLSASVGDRVTFTCQASQDITNSLNWYQQKPGRAPKLLIYDASYLKAGVPSRFSGSGSGTDFTFTISSLQPEDIATYYCQQYDDLPYTFGQGTKLEIK
notes: as for B1
B5: H4H12166P3 (antibody, human IgG4, V domains shown)
VH: QVQLQESGPGLVKPSETLSLTCTVSGDSVSSSYWTWIRQPPGKGLEWIGYIYYSGSSNYNPSLKSRATISVDTSKNQFSLKLSSVTAADTAVYYCAREHNVDTTMIFDYWGQGTLVTVSS
VL: AIQMTQSPSSLSASVGDRVTITCRASQGIRNDLGWYQQKPGKAPKLLIYAASSLQSGVPSRFAGRGSGTDFTLTISSLQPEDFATYYCLQDFNYPWTFGQGTKVEIK

biological target: T2, human C5 (human, UniProt P01031 19-1676); assay: cell-based or functional assay

B1 and B2 are within 1.5-fold of each other in “IC50, inhibition of CDC of Daudi cells, 1.66% human serum” value: 2 nM for the first, 2.2 nM for the second.

B3 and B4 are within 1.5-fold of each other in “IC50, inhibition of CDC of Daudi cells, 1.66% human serum” value: 1.9 nM for the first, 2.4 nM for the second.

biological target: T3, African green monkey C5 (African green monkey); assay: cell-based or functional assay

B1 and B2 are within 1.5-fold of each other in “IC50, inhibition of CDC of Daudi cells, 1.66% African Green monkey serum” value: 3.7 nM for the first, 5.2 nM for the second.

First: B3
Second: B4
The “IC50, inhibition of CDC of Daudi cells, 1.66% African Green monkey serum” value of the first is 1.8-fold lower: 3.3 nM for the first, 5.8 nM for the second.

biological target: T4, human C5 R885H-mmh (human, UniProt P01031 19-1676); assay: cell-based or functional assay

Compared with B1, B2 is 8.8-fold higher in “IC50, inhibition of CDC of Daudi cells, C5 depleted human serum and 6.6 nM C5 Variant R885H” value: 0.48 nM for the first, 4.2 nM for the second.

B3 and B4 are within 1.5-fold of each other in “IC50, inhibition of CDC of Daudi cells, C5 depleted human serum and 6.6 nM C5 Variant R885H” value: 1.6 nM for the first, 1.8 nM for the second.

biological target: T5, human C5 R885C-mmh (human, UniProt P01031 19-1676); assay: cell-based or functional assay

First: B1
Second: B2
The “IC50, inhibition of CDC of Daudi cells, C5 depleted human serum and 6.6 nM C5 Variant R885C” value of the first is lower: 430 pM for the first, > 20000 pM for the second.

B3 and B4 are within 1.5-fold of each other in “IC50, inhibition of CDC of Daudi cells, C5 depleted human serum and 6.6 nM C5 Variant R885C” value: 650 pM for the first, 820 pM for the second.

biological target: T3, African green monkey C5; assay: cell-based or functional assay; remark: another data set of the same source

For B5, the “IC50, inhibition of CDC of Daudi cells, 1.66% African Green monkey serum, 10 nM anti-CD20 antibody” value was > 30 nM.

With B5 the “Max % Inhibition of CDC of Daudi cells, 1.66% African Green monkey serum, 10 nM anti-CD20 antibody” value was 64%.

biological target: T4, human C5 R885H-mmh; assay: cell-based or functional assay; remark: another data set of the same source

With B5 the “IC50, inhibition of CDC of Daudi cells, C5 depleted human serum and 6.6 nM C5 Variant R885H, 7 nM anti-CD20 antibody” value was 2.9 nM.

biological target: T5, human C5 R885C-mmh; assay: cell-based or functional assay; remark: another data set of the same source

In the case of B5, the “IC50, inhibition of CDC of Daudi cells, C5 depleted human serum and 6.6 nM C5 Variant R885C, 30 nM anti-CD20 antibody” value is reported as 1.7 nM.

biological target: T2, human C5; assay: cell-based or functional assay; remark: another data set of the same source

Compared with B1, B2 is lower in “Human AP % Max Inhibition, hemolysis assay, NHS” value: 81.1% for the first, 80.2% for the second.

Going from B3 to B4, the “Human AP % Max Inhibition, hemolysis assay, NHS” value rises from 42% to 69.7%.

B1 and B2 are within 1.5-fold of each other in “Human AP IC50, hemolysis assay, NHS” value: 18 nM for the first, 20 nM for the second.

B3 and B4 are within 1.5-fold of each other in “Human AP IC50, hemolysis assay, NHS” value: 15.5 nM for the first, 14.5 nM for the second.

Going from B1 to B2, the “Human CP % Max Inhibition, hemolysis assay, NHS” value falls from 98.2% to 98%.

Compared with B3, B4 is higher in “Human CP % Max Inhibition, hemolysis assay, NHS” value: 94.9% for the first, 95.9% for the second.

B1 and B2 are within 1.5-fold of each other in “Human CP IC50, hemolysis assay, NHS” value: 2.39 nM for the first, 2.36 nM for the second.

B3 and B4 are within 1.5-fold of each other in “Human CP IC50, hemolysis assay, NHS” value: 2.33 nM for the first, 2.1 nM for the second.

biological target: T3, African green monkey C5; assay: cell-based or functional assay; remark: another data set of the same source

First: B1
Second: B2
The “AGM AP % Max Inhibition, hemolysis assay, 5% serum” value of the first is higher: 90.9% for the first, 17.4% for the second.

First: B3
Second: B4
The “AGM AP % Max Inhibition, hemolysis assay, 5% serum” value of the first is higher: 69.7% for the first, 15.6% for the second.

Compared with B1, B2 is lower in “AGM CP % Max Inhibition, hemolysis assay, 5% serum” value: 94.9% for the first, 84.5% for the second.

Going from B3 to B4, the “AGM CP % Max Inhibition, hemolysis assay, 5% serum” value rises from 17.8% to 85.8%.

First: B1
Second: B2
The “AGM Serum AP IC50, hemolysis assay, 5% serum” value of the first is 3.7-fold lower: 26.9 nM for the first, 98.5 nM for the second.

Going from B3 to B4, the “AGM Serum AP IC50, hemolysis assay, 5% serum” value rises from 23.3 nM to 178 nM (7.6-fold).

Compared with B1, B2 is 4.6-fold higher in “AGM Serum CP IC50, hemolysis assay, 5% serum” value: 25.4 nM for the first, 118 nM for the second.

In the case of B4, the “AGM Serum CP IC50, hemolysis assay, 5% serum” value is reported as 247 nM.

biological target: Cynomolgus monkey C5 (cynomolgus monkey, UniProt A0A2K5U1T1 19-1676); assay: cell-based or functional assay

First: B1
Second: B2
The “Cyno AP % Max Inhibition, hemolysis assay, 5% serum” value of the first is higher: 99.2% for the first, 98.1% for the second.

Compared with B3, B4 is lower in “Cyno AP % Max Inhibition, hemolysis assay, 5% serum” value: 98.8% for the first, 98.7% for the second.

First: B1
Second: B2
The “Cyno CP % Max Inhibition, hemolysis assay, 5% serum” value of the first is higher: 99% for the first, 96.7% for the second.

Going from B3 to B4, the “Cyno CP % Max Inhibition, hemolysis assay, 5% serum” value rises from 92.9% to 94.7%.

B1 and B2 are within 1.5-fold of each other in “Cyno Serum AP IC50, hemolysis assay, 5% serum” value: 7 nM for the first, 8.05 nM for the second.

B3 and B4 are within 1.5-fold of each other in “Cyno Serum AP IC50, hemolysis assay, 5% serum” value: 7.2 nM for the first, 9.1 nM for the second.

B1 and B2 are within 1.5-fold of each other in “Cyno Serum CP IC50, hemolysis assay, 5% serum” value: 8.2 nM for the first, 10.9 nM for the second.

Going from B3 to B4, the “Cyno Serum CP IC50, hemolysis assay, 5% serum” value rises from 8.7 nM to 19.6 nM (2.3-fold).

biological target: T2, human C5; assay: SPR (Biacore), mAb captured, dissociation of human C5 at pH7.4 vs pH6.0, 37°C
Summary of the method: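 Anti-C5 mAbs (human IgG4 Fc) captured on an amine-coupled mouse anti-human Fc surface; recombinant C5 dissociation followed by Biacore T200 in PBS-T (0.01M phosphate, 0.15M NaCl, 0.05% Tween-20) at pH7.4 or pH6.0. Dissociative half-life (t½) calculated from kd.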

Compared with B1, B2 is higher in “t½ Ratio pH7.4/pH6.0” value: ≤ 0.2 for the first, 0.9 for the second.

Going from B3 to B4, the “t½ Ratio pH7.4/pH6.0” value falls from 3.7 to ≤ 0.1.

Biological target: T1, monkey C5-mmh
Assay: SPR (Biacore), mAb captured, dissociation of monkey C5 at pH7.4 vs pH6.0, 25°C

Going from B1 to B2, the “t½ Ratio pH7.4/pH6.0” value rises from ≤ 1.7 to 3.6.

Compared with B3, B4 is higher in “t½ Ratio pH7.4/pH6.0” value: 2.1 for the first, 2.9 for the second.

Biological target: T1, monkey C5-mmh
Assay: SPR (Biacore), mAb captured, dissociation of monkey C5 at pH7.4 vs pH6.0, 37°C

First: B1
Second: B2
The “t½ Ratio pH7.4/pH6.0” value of the first is higher: 4.7 for the first, 0.4 for the second.

Compared with B3, B4 is lower in “t½ Ratio pH7.4/pH6.0” value: 4.7 for the first, 1.1 for the second.
